From US6403765B1, “Truncated Apaf-1 and methods of use thereof” (Thomas Jefferson University, priority 1998, dated 2002)

Tested on: chimeric procaspase-3 with an N-terminal procaspase-9 prodomain
Experiment: Processing of chimeric procaspase-3 by Apaf-530-bound caspase-9
Assay type: biochemical
Settings: Apaf-530 in the absence of procaspase-9, FIG. 15
Procedure: To achieve this, a chimeric procaspase-3 with an N-terminal caspase-9 prodomain was constructed. Caspase-9 prodomain in the chimera may allow recruitment of the chimeric procaspase-3 to the Apaf-530-caspase-9 complex. […] In FIG. 15, ^35S-labeled chimeric procaspase-3 with an N-terminal procaspase-9 prodomain (lanes 1-4) or WT procaspase-3 (lanes 5-8) were incubated with buffer or Apaf-530 in the presence or absence of a non-radiolabeled WT procaspase-9 and analyzed by SDS-PAGE followed by autoradiography.

processing of chimeric procaspase-3: no processing was observed
B1: Apaf-530: truncated Apaf-1 (residues 1-530) lacking its WD-40 repeats, recombinant (protein, UniProt O14727 1-530, looked up, fragment)
chain: MDAKARNCLLQHREALEKDIKTSYIMDHMISDGFLTISEEEKVRNEPTQQQRAAMLIKMILKKDNDSYVSFYNALLHEGYKDLAALLHDGIPVVSSSSGKDSVSGITSYVRTVLCEGGVPQRPVVFVTRKKLVNAIQQKLSKLKGEPGWVTIHGMAGCGKSVLAAEAVRDHSLLEGCFPGGVHWVSVGKQDKSGLLMKLQNLCTRLDQDESFSQRLPLNIEEAKDRLRILMLRKHPRSLLILDDVWDSWVLKAFDSQCQILLTTRDKSVTDSVMGPKYVVPVESSLGKEKGLEILSLFVNMKKADLPEQAHSIIKECKGSPLVVSLIGALLRDFPNRWEYYLKQLQNKQFKRIRKSSSYDYEALDEAMSISVEMLREDIKDYYTDLSILQKDVKVPTKVLCILWDMETEEVEDILQEFVNKSLLFCDRNGKSFRYYLHDLQVDFLTEKNCSQLQDLHKKIITQFQRYHQPHTLSPDQEDCMYWYNFLAYHMASAKMHKELCALMFSLDWIKAKTELVGPAHLIHEFVEYR
